Source: the DeepSol protein solubility set

Assay: soluble on expression in E. coli; label from the status in PepcDB or PDB records

| Sequence | soluble on expression in E. coli |
| --- | --- |
| MGSDKIHHHHHHMNDIKMIRIGITGGTGFLGNRLVELLSKTNTPITCLTRESSNIETIEDKVKVIKGDLSNLESLEDFVKGQDVIVHLAAQVSRTTKKEYYQSNVLGTENLCKAINQYNPECRLINCSSIAAYRIKGWCKLQFTDYAKSKLSADRVVDSYMKTIKATTIIPGIIYGAGNNAFISAIIENLEKGKLFFAKGGEKFAPLSYIDDLCDLFIRAIYNEESVGNKYFGIKYSERGIHDFIRIIASKTYNKAPDAVLSKNKLMAKAVFWQFVYSFFKIKKAPTLSIRMVDIMSINYSLSEEQRTNNLGWEPSVDMEEGVDNALLSYNLKKDSTNRS | not soluble |
| PVTNMAELDAMIARVKKAQEEFATYSQEQVDKIFRAASLAANQARIPLAQQAVEESGMGIVEDKVIKNHFASEFIYNKYKDEQTCGILEEDDNLGTMTIAEPVGIICGIVPTTNPTSTAIFKSLISLKTRNGIIFSPHPRAKNSTNDAAKLVLDAAVAAGAPKDIIGWIDQPSVELSNALMKHDDIALILATGGPGMVKAAYSSGKPAIGVGAGNVPVVIDETADIKRAVASVLMSKTFDNGVVCASE | not soluble |
| MKVIKGLTAGLIFLFLCACGGQQIKDPLNYEVEPFTFQNQDGKNVSLESLKGEVWLADFIFTNCETICPPMTAHMTDLQKKLKAGNIDVRIISFSVDPENDKPKQLKKFAANYPLSFDNWDFLTGYSQSEIEEFALKSFKAIVKKPEGEDQVIHQSSFYLVGPDGKVLKDYNGVENTPYDDIISDVKSASTLK | soluble |
| MAHHHHHHMALKLCKRFLRSNTKKPIFSKARDNLKERFDDDNYSFLEDNSFDSPLKASDEFPSYMQPSDKNSSWSEEWRDENLKLREKENRYNLRVSDNYAYSVPYNYKIVIPHKGKNIKDEKDKRKKLLNDEKYIKEEYSRDVSNTLNYSDFCGFRNPTLSTFENYRYWQDSGFKKFMNRIFPIKIPEHRKIDPLLREYIYFLHSFDPYRFTFKRLSERYLFPENVIRSIYKEESVKRFLEDYHLCDDKTKRISKKEAVLKIKELIYSKKIGYKDIGDYENIKNEQDEFCGHKNTFDQINRQIIQVESISAFPLADRRNPVPKRVDIDMTVCNTSNIKIMNWINPNDKVIF | soluble |
| TDYAVTALRAWTRPLNYDIEHVYRITLATVQKDKDGKWKERSADQGKTMMQTLDLIAAYPGVEAACLQQWGGHYSSSSSNSSFQLDTVSLINVEDRMVSPDYFRVFRVYGADGSSPEEMAERFGKLHMNDLQRDYYLSRNALDYVEKVNGEGRESDRRYIGMSDSINYNMVSVVDGVQSEKSIRYNQTLRGLIPDQPKNEAESTGYISLKPITEEYISQNELISYSVYLRVSPEADTPDFKEQFVKRMKAVTKDDTYPVLTMNAVSEDRAGILADPVRQINNH | not soluble |
| MGSDKIHHHHHHMLNDFVDRCVWAADLSAEQRDRVRRAMFVREYTQGDYVCHKGEIAEHWLGVLEGIVKITTVSPSGKSVTFTGVPTGGWFGEGAVLKSEIRKYDVMALRRSTIAFLPRDTFQWLLDTSLPFTRFLLTQFNERLGQFIAAVEYERLLDIDSRVARAVSSLFNEHLYPGIGNTLEISQEEIGLLAGISRQRANQALKVLEQQGLVRVDYGVIEVLDLEGLRQYGE | not soluble |
| MAHHHHHHMPWATTLDLKATPPPTLCVTVSNTTDVLIIADMQVDFLTPGGSLHVKGGEALLDGINAVSSQLPFRYQVATQDWHPENHCSFVTHGGPWPPHCVQGSSGAQLHAGLHTHRINAVLRKGATQQADSYSAFVDDNGVSTGLAGLLHSIGARRVFVCGVAYDFCVFFTAMDARKNGFGVVLLEDLTAAVDDAAWSARAAELKEAGVVLLSSSALVAEGTET | soluble |
| MSLKNPCNAEFQNFCIHGECKYIEHLEAVTCKCQQEYFGERCGEKSMKTHSMIDSSEGHHHHHH | not soluble |
| MGSDKIHHHHHHMEQVDMGPAQAPPLFSGQLDARTRAASVDLHGCNVDYWVYEPVSVTAETRTMLVVHGFRGDHHGLLRVADQLPDMRLIMPDLPGFGSSDAFPDGGHSVRRYGQFISDFMAALGLGPDTVLLGHSFGSIVASHFAAANPGAVFPLILINPIAAPALEGPKGVMTKLAVIYYEASARLPRALGLYLLRSRLIVRVMSMAMAKTRDKQLLQFIHGQHNAYFSAFANRDSLLESFKASVGSNVSEVAPDLSLPVLLIAGEKDEIAMLPDQHKLQALLPDGTLEVIPGVGHLIHYETPQPAAGFIRRFLKDHPA | not soluble |
| MGSDKIHHHHHHMSMNSEPTPAEAFFLEGNRLLAASECRAAEACFREALALAPDFAEAHANLGMLLDQEGMAAEAERQYRLALALNPRLGHTHSNLGVLLANQKRFEEAESAYLSAIELEPDSPAAWSNLGVLQACRKQEREAEESYRTALRLDPDYHRASFNLSYLLLRQGRFDEGWSLLESRNRRWFARLEEHLPCPRWRGEDLQGRSLLIGLEAGHGDMIQFCRYAPLLKDRGAARITLVCHVALKDLLKTLDGVDTVISFDEILPDDAWDFWTPAMSIPCYCRTRLDSIPARIPYLHADPGLAEQWAAMLEREWAGPEMRIGLAWKGNPHFENDGDRSLPHLKTLEPLGAVAGVRFFSLQKGAGEEEAAQPPAGLPVVNLMRHIAGFADTAALVANLDLVITVDTAVAHLAGALGTECWVLLPEYRTDWRWLTGRTDSPWYPGVMRLFRQPRVGDWETVVAEVGEALRLFAARPRSPRGTR | not soluble |
| MNDHTAAIAAHFDQLAPNLDRWRRRNRTYYRDLEKLHRFWIPTGSRVLQVGSGLGDLLATVEPSFGIGIDVSPQAVAIAQQRHPQLQFHCLAAEELTPEAIGNPEPFDAIILTGVLSYLTDIQVVLEQLQAFCHPRTRLILGFHNFLWQPLLTAAEKVGQRSPQPPESWLGMQDVLNLLTLTGYEPIKQGLEHHHHHH | soluble |
| GHMDIAEPAELDADELKRVLEALLLVIDTPVTADALAAATEQPVYRVAAKLQLMADELTGRDSGIDLRHTSEGWRMYTRARFAPYVEKLLLDGARTKLTRAALETLAVVAYRQPVTRARVSAVRGVNVDAVMRTLLARGLITEVGTDADTGAVTFATTELFLERLGLTSLSELPDIAPLLPDVDTIDDLSESLDSEPRFIKLTGELASEQTLSFDVDRD | soluble |
| QLLKVCMKLPKIDWYLGLSCPSNDMPLYLMRLFSRKPVVQMIHGPVGVARSSGYCLVKASAIYYLSNTRESLINALQAYLKTPKPATERYWSTLNASTFVNGLSRERWPKQANPISNRVFWAASLLKWKNVDLLLDALTLENTTTIQSTICYIKPNVPGVEYSTPDFNTKGVDWYESPNNLNELRAQCGVFVSTSVNEP | not soluble |
| MGSDKIHHHHHHMNLRRRGIVVSFHSNMVTVEDEETGERILCKLRGKFRLQNLKIYVGDRVEYTPDETGSGVIENVLHRKNLLTKPHVANVDQVILVVTVKMPETSTYIIDKFLVLAEKNELETVMVINKMDLYDEDDLRKVRELEEIYSGLYPIVKTSAKTGMGIEELKEYLKGKISTMAGLSGVGKSSLLNAINPGLKLRVSEVSEKLQRGRHTTTTAQLLKFDFGGYVVDTPGFANLEINDIEPEELKHYFKEFGDKQCFFSDCNHVDEPECGVKEAVENGEIAESRYENYVKMFYELLGRRKK | not soluble |
| MSLNIETIVKGRRMITKFPPQWQEKLDQVAFTHLTPIQEQAFQPIVDGKNFLGISPTGTGKTLAYVFPSLLALTPKKSQQLLILAPNTELAGQIFEVTKDWAQPLGLTAQLFISGTSQKRQIERLKKGPEILIGTPGRIFELIKLKKIKMMSVNTIVLDEYDELLGDSQYDFVQKISHYVPRDHQMVYMSATNKVDQTSLAPNTFCIDLSEQTNDAIQHFYLMVDKRERTDLLRKFANIPHFRALVFFNSLSDLGATEERLQYNGAAAVSLASDINVKFRKTILEKFKSHQLSLLLATDLVARGIDIDNLDYVIHFDVARDKENYTHRAGRTGRMGKSGIVITFVSHPEDLKKLKKFAKVSEISLKNQQLHFINEGHHHHHH | not soluble |
| SLDGILDHTMIRVEDLDASLEWYTTHLNYEEKGRWEAETFTNVYLGPEDAGDAAARLELTYNHDGRSYTMGDAWGHIAVRVPDVEAAYDELMQSGVEDYRPPAENPGYAFVTDPDGHEVEIVERDYGTKWSLDHTMLRVEDVNAALGYWIRTFEYEPTGRWEADSFANYFVSPQDAPAEAMDIELTYNYDGRSYTMGDAWGHVAVRCADLQSAWETLQEREAPDYRDPESCDNRYAFTKAPDGHEIEILPTEEG | not soluble |
| MGHHHHHHSHAKGKERQWLRHQATGELDDAKIIDGLTGEKAIYKRRGELEPQLGSPQQKPKRLRLVVDVSGSMYRFNRMDGRLERTMEAVCMVMEAFENYEEKFQYDIVGHSGDGYNIGLVPMNKIPKDNKQRLEILKTMHAHSQFCMSGDHTLEGTEHAIKEIVKEEADEYFVIVLSDANLSRYGIHPAKFAQILTRDPQVNAFAIFIGSLGDQATRLQRTLPAGRSFVAMDTKDIPQILQQIFTSTMLSSV | not soluble |
| MGSDKIHHHHHHSEDTMDRINKDHDHTTSVASRFILADVITSTAFSNASGDINTYASSYIEYEVGVDNQLYYAEVRENEPSSSSTFNNSWNGIYSSLKNARIIIDQCGEGGRDHGNDVTRGMAEVMAAYNCALIADFFGDAPCSQAALVDEKGSPVYMTPKMDTQQEIYTQIISYLDDAIANLQKEDLADVTEQDFLYAGDADKWLKFAYGLKARYTMRLINRSSNKSADYEKVLDYVSKSFTSADDQAAFDIYDSNNINPFYGFYNSRAGFGASTSLGTKLLAYNDPRANRAFFTPIVDKKRSQVAANDPSLVPAPNGSPDQSTSKYGISAFVYAKTAPTLLMSYHELMFLKAEALCRLNRDAEDALKEAVVAGLLNAENSISIAIKELGSGLNTNSSEVITETSAGKYFDDVVKAKYAANPLQETMIQKYLAMWGASGEATETYNDFRRMKGLNENFITLTNPNNSSKFPLRYPYGNSDTAANPEVKAAYGNGDYVYSEPVWWAGGSR | not soluble |
| MGSLGFLAGGVMPLEQLKQELSEVKGVFGVNLFRPQTDAPKPSDIDELAGLLSSAFRQFGLDEPTVPTPDLSNGWEAKFEAVLAAKPAVFSCTFGIFSAEEFARIKATGIEAWVTVTNPEDALAAQKAGANALVVQGPEAGGHRSTWSIEVEPDERDLKTLLAAVKQAGVYLPLIAAGGLSTSADVAAILEAGASAASCGSAFLLSDEAGTSSLNREILDAAPALGLESVSSRAFSGRYARGVETRFTRSNEGLPPLYPYLNPMITSLRKVAGSAGNWDYAYCLVGVGLESIAKGSAKQILESLTPSALEHHHHHH | not soluble |
| QVQLQESGPGLVRPSQTLSLTCTVSGFSLTGYGVNWVRQPPGRGLEWIGMIWGDGNTDYNSALKSRVTMLKDTSKNQFSLRLSSVTAADTAVYYCARERDYRLDYWGQGSLVTVSSG | soluble |
| MGSPLPFRLTCVWAGEPSMKKAIIFDCEFLCLEGSQRRFWCAAHDPDPVIAQIGAVKLGLEGGFPLLETYKVLISPVDRHGRRYAIDPFFTRLTGITEENIEAEGVPLQDALSSFDSFSEGAQCWSWGKDELNMMAISTYVAGIQPPMPACRFDNAVRLLLAAGMPVEDLAKTPSNSLADYYGVAHPPLQGHDALGDALSVSYALQHLLRSGKLKPEEFTLAAAAALEHHHHHH | not soluble |
